Target: T1, Rox1 (Saccharomyces cerevisiae, UniProt P25042 1-368)
T1 sequence: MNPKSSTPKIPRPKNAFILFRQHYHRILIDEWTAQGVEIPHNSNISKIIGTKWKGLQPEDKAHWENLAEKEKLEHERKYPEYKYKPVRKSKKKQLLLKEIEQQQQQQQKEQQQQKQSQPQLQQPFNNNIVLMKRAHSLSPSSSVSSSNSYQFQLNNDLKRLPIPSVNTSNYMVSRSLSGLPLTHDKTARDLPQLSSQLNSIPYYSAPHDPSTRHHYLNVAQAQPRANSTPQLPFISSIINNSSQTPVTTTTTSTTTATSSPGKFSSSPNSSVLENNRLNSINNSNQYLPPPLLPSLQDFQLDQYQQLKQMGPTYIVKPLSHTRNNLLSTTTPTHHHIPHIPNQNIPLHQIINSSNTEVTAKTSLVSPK
Assay: EMSA

B1: HMG6bp (dsDNA)
DNA 1: TGATTGTCAATTTAGTTAATCATTGTTATTAATAAAGGAAAGATATAAAA
DNA 2: TTTTATATCTTTCCTTTATTAATAACAATGATTAACTAAATTGACAATCA
B1: binds.

— PMC6941230
